B1: Hairpin Ribozyme (parent)
chain: GUCCUCUUUCACGUGCGCGUGAAAGAGAGAAGUGAACCAGAGAAACACACGUUGUGGUAUAUUACCUGGUA

The variants in the series derive from B1. Briefly: self-cleavage, relative activity (ratio to wild type); higher = more cleavage; co-transcriptional.
Turning to GUCCUCUUUCACGUACGCGUGAAAGAGAGAAGUGAACUAGAGAAACACACGUUGUGGUAUAUUACCUGGUA, the self-cleavage was 0.44.
The figure for GUCCUCUUUCACGUACGCGUGAAAGAGAGAAGUGAACCAGAGCAACACACGUUGUGGUAUAUUACCUGGUA is 0.162.
The figure for GUCCUCUUUCACGGGCGCGGGAAAGAGAGAAGUGAACCAGAGAAACACACGUUGUGGUAUAUUACCUGGUA is 0.736; for GUCCUCUUUCACGUACGCGUGAAAGAGAGAAGUGAACCAGAGAAACGCACGUUGUGGUAUAUUACCUGGUA it is 0.124.
The figure for GUCCUCUUUCACGUACGCGUGAAAGAGAGAAGUGAACCAGAGAAACUCACGUUGUGGUAUAUUACCUGGUA is 0.17.
GUCCUCUUUCACGGGCGCGUGAAAGAGAGAAGUGAACCAGAGCAACACACGUUGUGGUAUAUUACCUGGUA: the self-cleavage is 0.0921.
The figure for GUCCUCUUUCACGGGCGCGUGAAAGAGAGAAGUGAACCAGAGAAACACACAUUGUGGUAUAUUACCUGGUA is 0.989; for GUCCUCUUUCACGGGCGCGUGAAAGAGAGAAGUGAACCAGAGAAACACACGUGGUGGUAUAUUACCUGGUA it is 0.287; for GUCCUCUUUCACGGGCGCGUCAAAGAGAGAAGUGAACCAGAGAAACACACGUUGUGGUAUAUUACCUGGUA it is 0.342.
With GUCCUCUUUCACGGGCGCGUAAAAGAGAGAAGUGAACCAGAGAAACACACGUUGUGGUAUAUUACCUGGUA, the self-cleavage amounted to 0.686.
The figure for GUCCUCUUUCACGGGCGCGUGAAAGAGAGAAGUGAACCAGCGAAACACACGUUGUGGUAUAUUACCUGGUA is 0.698; for GUCCUCUUUCACGGGCUCGUGAAAGAGAGAAGUGAACCAGAGAAACACACGUUGUGGUAUAUUACCUGGUA it is 0.513.
The figure for GUCCUCUUUCACGGGCCCGUGAAAGAGAGAAGUGAACCAGAGAAACACACGUUGUGGUAUAUUACCUGGUA is 0.415; for GUCCUCUUUCACGUAAGCGUGAAAGAGAGAAGUGAACCAGAGAAACACACGUUGUGGUAUAUUACCUGGUA it is 0.881.
The result for GUCCUCUUUCACGUAGGCGUGAAAGAGAGAAGUGAACCAGAGAAACACACGUUGUGGUAUAUUACCUGGUA reads 1.04; that for GUCCUCUUUCACGUACGCGUGAAAGAGAGAAGUGAUCCAGAGAAACACACGUUGUGGUAUAUUACCUGGUA, 0.673.
As to GUCCUCUUUCACGGGCGCGUGAAAGAGAGAAGUGAACCAGAUAAACACACGUUGUGGUAUAUUACCUGGUA, the self-cleavage amounted to 0.163.
The result for GUCCUCUUUCACGUACGCGUGAAAGAGAGAAGUGAACCAGAGAAACACACGUUGUGGUAUAUUACCUGGUU reads 0.785; that for GUCCUCUUUCACGUACGCGUGAAAGAGAGAAGUGAACCGGAGAAACACACGUUGUGGUAUAUUACCUGGUA, 0.287.
For the variant GUCCUCUUUCACGGGCGCGUGAAAGAGAGAAGUGAUCCAGAGAAACACACGUUGUGGUAUAUUACCUGGUA, the self-cleavage was determined as 0.311.
In the case of GUCCUCUUUCACGGGCGCGUGAAAGAGAGAAGUGAAUCAGAGAAACACACGUUGUGGUAUAUUACCUGGUA, the self-cleavage came to 0.547.
The figure for GUCCUCUUUCACGGGCGCGUGAAAGAGAGAAGUGAACCAGAGAAACACACGUUGUGGUAUAAUACCUGGUA is 0.209; for GUCCUCUUUCACGGGCGCGUGAAAGAGAGAAGUGAACCAGAGAAACACGCGUUGUGGUAUAUUACCUGGUA it is 0.386.
The figure for GUCCUCUUUCACGGGCGCGUGAAAGAGAGAAGUUAACCAGAGAAACACACGUUGUGGUAUAUUACCUGGUA is 1.11.
The figure for GUCCUCUUUCACGGGCGCGUGAAAGAGAGAAGUGAACCAGAGAAACCCACGUUGUGGUAUAUUACCUGGUA is 0.218.
As to GUCCUCUUUCACGUACGCGUGAAAGAGAGAAGUGUACCAGAGAAACACACGUUGUGGUAUAUUACCUGGUA, the self-cleavage worked out at 0.52.
The figure for GUCCUCUUUCACGUACGCGUGAAAGAGAGAAGUGCACCAGAGAAACACACGUUGUGGUAUAUUACCUGGUA is 0.806; for GUCCUCUUUCACGGGCGCGUGAAAGAGAGAAGUGAACCAGAGAACCACACGUUGUGGUAUAUUACCUGGUA it is 0.243.
The result for GUCCUCUUUCACGGGCGCGUGAAAGAGAGAAGUGAACCAGAGAAACACACGUUGUGGUAUAUUAACUGGUA reads 1.05.
For GUCCUCUUUCACGUACGCGUGAAAGAGAGAAGUGAACCAGAGAAACACCCGUUGUGGUAUAUUACCUGGUA, the self-cleavage amounted to 0.0193.
With GUCCUCUUUCACGGGCGCGUGAAAGAGAGAAGUGAACCAGAGAAACACACGUUGUGGUAUAUUACCUGUUA, the self-cleavage is 0.2.
The result for GUCCUCUUUCACGUACGCGUGGAAGAGAGAAGUGAACCAGAGAAACACACGUUGUGGUAUAUUACCUGGUA reads 1.11; that for GUCCUCUUUCACGUACGCGUGCAAGAGAGAAGUGAACCAGAGAAACACACGUUGUGGUAUAUUACCUGGUA, 0.821; that for GUCCUCUUUCACGUACGCGUGUAAGAGAGAAGUGAACCAGAGAAACACACGUUGUGGUAUAUUACCUGGUA, 0.699.
With GUCCUCUUUCACGUACGCGUGAUAGAGAGAAGUGAACCAGAGAAACACACGUUGUGGUAUAUUACCUGGUA, the self-cleavage came to 0.846.
The result for GUCCUCUUUCACGGGCGCGUGAAAGAGAGAAGUGAACCAGAGAAACACACGUUGUGGUAUAUUACUUGGUA reads 0.217; that for GUCCUCUUUCACGGGCGCGUGAAAGAGAGAAGUGAACCAGAGAAACACACGUUGUGGUAUAUUACGUGGUA, 0.173; that for GUCCUCUUUCACGGGCGCGUGAAAGAGAGAAGUGAACCAGAGAAACAUACGUUGUGGUAUAUUACCUGGUA, 0.0482.
